{
  "source": "paper doi:10.1101/2021.07.28.454260",
  "biological_target": "HupA fused to a split luciferase fragment (positive control of the assay)",
  "assay": "split reporter",
  "data": [
    {"substance": "HupA fused to a split luciferase fragment (positive control of the assay) (natural protein)", "values": [
      {"measurement": "increase in luminescence signal after 1 hour of induction", "result": "> 2"}
    ]}
  ]
}
